Test results reported in patent US20230250154A1 (CYTONICS, published 2023).

T1: Cathepsin G (UniProt P08311 21-244)
T1 sequence (looked up): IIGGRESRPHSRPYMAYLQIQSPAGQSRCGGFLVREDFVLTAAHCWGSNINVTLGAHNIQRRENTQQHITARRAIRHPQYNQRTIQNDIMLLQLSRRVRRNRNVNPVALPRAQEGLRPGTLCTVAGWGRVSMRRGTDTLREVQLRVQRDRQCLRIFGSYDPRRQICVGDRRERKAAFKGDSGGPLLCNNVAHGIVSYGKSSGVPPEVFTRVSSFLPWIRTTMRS

T2: ADAMTS4 (human, UniProt O75173 213-685, limits assumed)
T2 sequence (looked up): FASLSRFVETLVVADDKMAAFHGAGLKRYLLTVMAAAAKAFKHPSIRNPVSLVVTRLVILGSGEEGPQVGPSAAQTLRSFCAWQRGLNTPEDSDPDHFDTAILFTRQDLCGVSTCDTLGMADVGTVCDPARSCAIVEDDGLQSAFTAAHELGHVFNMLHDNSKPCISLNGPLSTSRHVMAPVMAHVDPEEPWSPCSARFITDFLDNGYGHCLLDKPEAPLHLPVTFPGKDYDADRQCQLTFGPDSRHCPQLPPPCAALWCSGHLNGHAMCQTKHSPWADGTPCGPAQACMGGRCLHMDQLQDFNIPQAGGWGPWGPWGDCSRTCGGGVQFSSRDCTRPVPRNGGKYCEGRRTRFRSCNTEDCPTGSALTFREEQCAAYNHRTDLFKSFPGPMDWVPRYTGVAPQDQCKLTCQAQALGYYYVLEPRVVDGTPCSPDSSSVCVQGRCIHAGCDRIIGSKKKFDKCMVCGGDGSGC

T3: ADAMTS5 (human, UniProt Q9UNA0 262-622, limits assumed)
T3 sequence (looked up): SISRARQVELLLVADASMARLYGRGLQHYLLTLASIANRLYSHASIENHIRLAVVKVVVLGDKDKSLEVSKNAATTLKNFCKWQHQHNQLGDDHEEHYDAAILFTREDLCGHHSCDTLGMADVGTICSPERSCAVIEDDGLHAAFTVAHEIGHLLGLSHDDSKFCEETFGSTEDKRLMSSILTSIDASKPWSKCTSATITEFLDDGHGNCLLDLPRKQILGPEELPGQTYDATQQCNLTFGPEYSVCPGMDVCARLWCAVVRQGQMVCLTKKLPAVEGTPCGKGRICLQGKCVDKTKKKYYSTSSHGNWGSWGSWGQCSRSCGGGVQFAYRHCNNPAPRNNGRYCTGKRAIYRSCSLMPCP

T4: MMP1 (human, UniProt P03956 100-469, limits assumed)
T4 sequence (looked up): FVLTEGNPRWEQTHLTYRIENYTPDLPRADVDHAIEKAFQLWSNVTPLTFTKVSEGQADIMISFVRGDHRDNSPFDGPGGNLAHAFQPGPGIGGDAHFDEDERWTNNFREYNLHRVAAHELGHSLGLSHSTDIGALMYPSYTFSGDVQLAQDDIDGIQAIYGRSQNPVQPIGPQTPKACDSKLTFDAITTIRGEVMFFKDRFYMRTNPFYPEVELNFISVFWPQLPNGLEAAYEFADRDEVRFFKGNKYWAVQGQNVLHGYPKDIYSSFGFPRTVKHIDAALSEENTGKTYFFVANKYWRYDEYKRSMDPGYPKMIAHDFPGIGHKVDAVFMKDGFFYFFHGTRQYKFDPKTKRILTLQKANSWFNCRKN

T5: MMP2 (human, UniProt P08253 110-660, limits assumed)
T5 sequence (looked up): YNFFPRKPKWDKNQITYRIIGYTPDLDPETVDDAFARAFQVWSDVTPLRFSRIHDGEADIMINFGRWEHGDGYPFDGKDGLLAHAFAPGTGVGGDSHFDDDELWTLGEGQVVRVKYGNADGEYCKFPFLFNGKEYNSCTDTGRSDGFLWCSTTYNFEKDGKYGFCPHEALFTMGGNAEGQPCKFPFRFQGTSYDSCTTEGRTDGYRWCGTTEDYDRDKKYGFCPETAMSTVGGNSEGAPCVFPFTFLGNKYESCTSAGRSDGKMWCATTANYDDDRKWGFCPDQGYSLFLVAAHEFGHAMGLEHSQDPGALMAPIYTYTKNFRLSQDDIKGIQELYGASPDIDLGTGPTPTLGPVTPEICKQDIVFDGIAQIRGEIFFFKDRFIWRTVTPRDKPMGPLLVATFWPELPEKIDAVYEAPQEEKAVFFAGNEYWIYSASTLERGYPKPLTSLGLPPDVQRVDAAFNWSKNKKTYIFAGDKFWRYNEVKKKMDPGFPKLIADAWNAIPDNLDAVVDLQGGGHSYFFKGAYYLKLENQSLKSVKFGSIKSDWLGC


Assays:
Assay in all cases: cell-based or functional assay
Elastase = target: Elastase
Cathepsin G = target: T1, Cathepsin G
bovine trypsin = bovine trypsin (bovine, UniProt P00760 24-246)
Chain of bovine trypsin (P00760 24-246): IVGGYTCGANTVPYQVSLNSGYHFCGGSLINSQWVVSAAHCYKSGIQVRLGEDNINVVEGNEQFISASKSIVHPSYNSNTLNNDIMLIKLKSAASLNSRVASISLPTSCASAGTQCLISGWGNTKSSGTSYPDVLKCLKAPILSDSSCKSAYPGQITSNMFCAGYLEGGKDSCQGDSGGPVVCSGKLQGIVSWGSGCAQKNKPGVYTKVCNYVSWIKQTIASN

chymotrypsin = target: chymotrypsin
ADAMTS4 = target: T2, ADAMTS4
ADAMTS5 = target: T3, ADAMTS5
MMP1 = target: T4, MMP1
MMP8 = MMP8 (human, UniProt P22894 101-467, limits assumed)
Chain of MMP8 (P22894 101-467 limits assumed): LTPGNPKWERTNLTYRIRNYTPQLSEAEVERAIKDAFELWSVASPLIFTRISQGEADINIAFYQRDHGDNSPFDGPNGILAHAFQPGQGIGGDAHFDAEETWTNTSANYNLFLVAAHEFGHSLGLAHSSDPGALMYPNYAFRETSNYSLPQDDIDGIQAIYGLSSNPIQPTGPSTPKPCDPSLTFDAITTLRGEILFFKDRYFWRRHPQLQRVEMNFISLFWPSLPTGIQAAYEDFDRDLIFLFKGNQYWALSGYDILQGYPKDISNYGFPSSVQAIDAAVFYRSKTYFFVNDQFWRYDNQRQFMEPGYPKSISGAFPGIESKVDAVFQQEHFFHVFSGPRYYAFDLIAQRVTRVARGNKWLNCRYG

MMP13 = MMP13 (human, UniProt P45452 104-471, limits assumed)
MMP2 = target: T5, MMP2
MMP9 = MMP9 (human, UniProt P14780 107-707, limits assumed)
Chain of MMP9 (P14780 107-707 limits assumed): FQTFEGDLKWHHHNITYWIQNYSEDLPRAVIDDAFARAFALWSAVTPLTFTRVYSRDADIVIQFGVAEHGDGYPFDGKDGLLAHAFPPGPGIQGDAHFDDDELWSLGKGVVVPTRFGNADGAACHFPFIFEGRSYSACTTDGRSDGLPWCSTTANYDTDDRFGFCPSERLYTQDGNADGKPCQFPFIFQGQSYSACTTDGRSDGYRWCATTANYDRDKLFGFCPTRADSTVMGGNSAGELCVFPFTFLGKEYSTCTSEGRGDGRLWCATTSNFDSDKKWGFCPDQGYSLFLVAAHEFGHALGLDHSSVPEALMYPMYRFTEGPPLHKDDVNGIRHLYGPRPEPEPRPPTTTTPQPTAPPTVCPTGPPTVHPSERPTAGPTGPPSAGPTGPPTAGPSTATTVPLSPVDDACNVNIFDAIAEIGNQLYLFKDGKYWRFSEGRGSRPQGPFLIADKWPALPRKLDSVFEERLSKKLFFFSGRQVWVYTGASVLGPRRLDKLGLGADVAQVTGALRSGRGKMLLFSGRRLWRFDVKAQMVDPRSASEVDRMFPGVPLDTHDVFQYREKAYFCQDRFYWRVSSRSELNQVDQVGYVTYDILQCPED

MMP3 = MMP3 (human, UniProt P08254 100-477, limits assumed)
Chain of MMP3 (P08254 100-477 limits assumed): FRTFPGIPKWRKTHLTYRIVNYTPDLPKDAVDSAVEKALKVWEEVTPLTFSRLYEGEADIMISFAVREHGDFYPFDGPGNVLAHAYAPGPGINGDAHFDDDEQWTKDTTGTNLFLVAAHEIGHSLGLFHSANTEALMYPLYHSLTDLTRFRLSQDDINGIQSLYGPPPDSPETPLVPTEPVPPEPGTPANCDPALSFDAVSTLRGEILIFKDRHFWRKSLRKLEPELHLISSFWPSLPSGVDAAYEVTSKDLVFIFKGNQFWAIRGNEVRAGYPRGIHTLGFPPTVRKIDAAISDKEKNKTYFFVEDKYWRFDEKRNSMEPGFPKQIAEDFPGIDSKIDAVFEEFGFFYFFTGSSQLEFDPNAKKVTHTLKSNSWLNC

MMP12 = MMP12 (human, UniProt P39900 106-470, limits assumed)
Chain of MMP12 (P39900 106-470 limits assumed): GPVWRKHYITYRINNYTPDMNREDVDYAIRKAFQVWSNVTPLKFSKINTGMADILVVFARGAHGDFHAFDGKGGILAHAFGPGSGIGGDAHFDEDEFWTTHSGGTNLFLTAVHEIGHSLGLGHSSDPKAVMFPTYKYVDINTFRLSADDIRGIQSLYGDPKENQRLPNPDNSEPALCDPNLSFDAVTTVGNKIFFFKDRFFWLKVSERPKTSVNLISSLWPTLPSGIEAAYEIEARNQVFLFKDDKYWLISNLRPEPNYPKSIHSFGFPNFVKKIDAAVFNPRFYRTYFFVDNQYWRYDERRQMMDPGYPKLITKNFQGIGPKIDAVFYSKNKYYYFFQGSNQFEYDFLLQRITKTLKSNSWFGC

Protease Inhibition (% of WT) (Elastase)	Protease Inhibition (% of WT) (Cathepsin G)	Protease Inhibition (% of WT) (bovine trypsin)	Protease Inhibition (% of WT) (chymotrypsin)	Protease Inhibition (% of WT) (ADAMTS4)	Protease Inhibition (% of WT) (ADAMTS5)	Protease Inhibition (% of WT) (MMP1)	Protease Inhibition (% of WT) (MMP8)	Protease Inhibition (% of WT) (MMP13)	Protease Inhibition (% of WT) (MMP2)	Protease Inhibition (% of WT) (MMP9)	Protease Inhibition (% of WT) (MMP3)	Protease Inhibition (% of WT) (MMP12)	Binder
105 % of WT	311 % of WT	86 % of WT	50 % of WT	115 % of WT	480 % of WT	379 % of WT	163 % of WT	117 % of WT	61 % of WT	500 % of WT	130 % of WT	132 % of WT	Variant A2M, bait region SEQ ID NO 126 (other) SVSGKPQYMVLVPSLLHTETTEKGCVLLSYLNETVTVSASLESVRGNRSLFTDLEAENDVLHCVAFAVPKSSSNEEVMFLTVQVKGPTQEFKKRTTVMVKNEDSLVFVQTDKSIYKPGQTVKFRVVSMDENFHPLNELIPLVYIQDPKGNRIAQWQSFQLEGGLKQFSFPLSSEPFQGSYKVVVQKKSGGRTEHPFTVEEFVLPKFEVQVTVPKIITILEEEMNVSVCGLYTYGKPVPGHVTVSICRKYSDASDCHGEDSQAFCEKFSGQLNSHGCFYQQVKTKVFQLKRKEYEMKLHTEAQIQEEGTVVELTGRQSSEITRTITKLSFVKVDSHFRQGIPFFGQVRLVDGKGVPIPNKVIFIRGNEANYYSNATTDEHGLVQFSINTTNVMGTSLTVRVNYKDRSPCYGYQWVSEEHEEAHHTAYLVFSPSKSFVHLEPMSHELPCGHTQTVQAHYILNGGTLLGLKKLSFYYLIMAKGGIVRTGTHGLLVKQEDMKGHFSISIPVKSDIAPVARLLIYAVLPTGDVIGDSAKYDVENCLANKVDLSFSPSQSLPASHAHLRVTAAPQSVCALRAVDQSVLLMKPDAELSASSVYNLLPEKDLTGFPGPLNDQDDEDCINRHNVYINGITYTPVSSTNEKDMYSFLEDMGLKAFTNSKIRKPKMCPQLEQYEMHGPEGEGEGEGIPENFFGVSEDLVVQISELEGRGSVEEPHTKLRKYFPETWIWDLVVVNSAGVAEVGVTVPDTITEWKAGAFCLSEDAGLGISSTASLRAFQPFFVELTMPYSVIRGEAFTLKATVLNYLPKCIRVSVQLEASPAFLAVPVEKEQAPHCICANGRQTVSWAVTPKSLGNVNFTVSAEALESQELCGTEVPSVPEHGRKDTVIKPLLVEPEGLEKETTFNSLLCPSGGEVSEELSLKLPPNVVEESARASVSVLGDILGSAMQNTQNLLQMPYGCGEQNMVLFAPNIYVLDYLNETQQLTPEIKSKAIGYLNTGYQRQLNYKHYDGSYSTFGERYGRNQGNTWLTAFVLKTFAQARAYIFIDEAHITQALIWLSQRQKDNGCFRSSGSLLNNAIKGGVEDEVTLSAYITIALLEIPLTVTHPVVRNALFCLESAWKTAQEGDHGSHVYTKALLAYAFALAGNQDKRKEVLKSLNEEAVKKDNSVHWERPQKPKAPVGHFYEPQAPSAEVEMTSYVLLAYLTAQPAPTSEDLTSATNIVKWITKQQNAQGGFSSTQDTVVALHALSKYGAATFTRTGKAAQVTIQSSGTFSSKFQVDNNNRLLLQQVSLPELPGEYSMKVTGEGCVYLQTSLKYNILPEKEEFPFALGVQTLPQTCDEPKAHTSFQISLSVSYTGSRSASNMAIVDVKMVSGFIPLKPTVKMLERSNHVSRTEVSSNHVLIYLDKVSNQTLSLFFTVLQDVPVRDLKPAIVKVYDYYETDEFAIAEYNAPCSKDLGNADYKDDDDKGASHHHHHH
102 % of WT	324 % of WT	84 % of WT	25 % of WT	82 % of WT	205 % of WT	327 % of WT	210 % of WT	131 % of WT	118 % of WT	500 % of WT	130 % of WT	170 % of WT	Variant A2M, bait region SEQ ID NO 127 (other) SVSGKPQYMVLVPSLLHTETTEKGCVLLSYLNETVTVSASLESVRGNRSLFTDLEAENDVLHCVAFAVPKSSSNEEVMFLTVQVKGPTQEFKKRTTVMVKNEDSLVFVQTDKSIYKPGQTVKFRVVSMDENFHPLNELIPLVYIQDPKGNRIAQWQSFQLEGGLKQFSFPLSSEPFQGSYKVVVQKKSGGRTEHPFTVEEFVLPKFEVQVTVPKIITILEEEMNVSVCGLYTYGKPVPGHVTVSICRKYSDASDCHGEDSQAFCEKFSGQLNSHGCFYQQVKTKVFQLKRKEYEMKLHTEAQIQEEGTVVELTGRQSSEITRTITKLSFVKVDSHFRQGIPFFGQVRLVDGKGVPIPNKVIFIRGNEANYYSNATTDEHGLVQFSINTTNVMGTSLTVRVNYKDRSPCYGYQWVSEEHEEAHHTAYLVFSPSKSFVHLEPMSHELPCGHTQTVQAHYILNGGTLLGLKKLSFYYLIMAKGGIVRTGTHGLLVKQEDMKGHFSISIPVKSDIAPVARLLIYAVLPTGDVIGDSAKYDVENCLANKVDLSFSPSQSLPASHAHLRVTAAPQSVCALRAVDQSVLLMKPDAELSASSVYNLLPEKDLTGFPGPLNDQDDEDCINRHNVYINGITYTPVSSTNEKDMYSFLEDMGLKAFTNSKIRKPKMCPQLEQYEMHGPIPENFFGVSELEGRGSEAIPMSIPTEGEGEGEGVEEPHTKLRKYFPETWIWDLVVVNSAGVAEVGVTVPDTITEWKAGAFCLSEDAGLGISSTASLRAFQPFFVELTMPYSVIRGEAFTLKATVLNYLPKCIRVSVQLEASPAFLAVPVEKEQAPHCICANGRQTVSWAVTPKSLGNVNFTVSAEALESQELCGTEVPSVPEHGRKDTVIKPLLVEPEGLEKETTFNSLLCPSGGEVSEELSLKLPPNVVEESARASVSVLGDILGSAMQNTQNLLQMPYGCGEQNMVLFAPNIYVLDYLNETQQLTPEIKSKAIGYLNTGYQRQLNYKHYDGSYSTFGERYGRNQGNTWLTAFVLKTFAQARAYIFIDEAHITQALIWLSQRQKDNGCFRSSGSLLNNAIKGGVEDEVTLSAYITIALLEIPLTVTHPVVRNALFCLESAWKTAQEGDHGSHVYTKALLAYAFALAGNQDKRKEVLKSLNEEAVKKDNSVHWERPQKPKAPVGHFYEPQAPSAEVEMTSYVLLAYLTAQPAPTSEDLTSATNIVKWITKQQNAQGGFSSTQDTVVALHALSKYGAATFTRTGKAAQVTIQSSGTFSSKFQVDNNNRLLLQQVSLPELPGEYSMKVTGEGCVYLQTSLKYNILPEKEEFPFALGVQTLPQTCDEPKAHTSFQISLSVSYTGSRSASNMAIVDVKMVSGFIPLKPTVKMLERSNHVSRTEVSSNHVLIYLDKVSNQTLSLFFTVLQDVPVRDLKPAIVKVYDYYETDEFAIAEYNAPCSKDLGNADYKDDDDKGASHHHHHH
